Measurements published in publication PMC10567701 (Nature Communications, 2023).
Where no end group is shown, it is not given here.

B1: LptM^His (natural protein, Escherichia coli, UniProt P0ADN6 20-67, looked up)
chain: CGLKGPLYFPPADKNAPPPTKPVETQTQSTVPDKNDRATGDGPSQVNY
modifications: also: tri-acylated
notes: LptM (formerly YifL), E. coli, UniProt P0ADN6; mature and tri-acylated lipoprotein (theoretical mass with the tag 6,988 Da); also called C-terminally poly-histidine tagged version of E. coli LptM; YifL; source: E. coli BW25113 ΔlptM, overproduced from pLptDEM^His or pLptM^His; DDM-solubilized envelope fraction; not shown: poly-histidine, C-terminal, kept
B2: LptE (natural protein)
chain: not shown
modifications: tri-acylated (mature and tri-acylated protein)
notes: LptE, E. coli, UniProt P0ADC1; mature and tri-acylated lipoprotein (theoretical mass 20,248 Da); Untagged; source: E. coli BW25113 ΔlptM, overproduced from pLptDEM^His; DDM-solubilized envelope fraction
B3: LptD (natural protein, Escherichia coli, UniProt P31554 25-784, looked up)
chain: ADLASQCMLGVPSYDRPLVQGDTNDLPVTINADHAKGDYPDDAVFTGSVDIMQGNSRLQADEVQLHQKEAPGQPEPVRTVDALGNVHYDDNQVILKGPKGWANLNTKDTNVWEGDYQMVGRQGRGKADLMKQRGENRYTILDNGSFTSCLPGSDTWSVVGSEIIHDREEQVAEIWNARFKVGPVPIFYSPYLQLPVGDKRRSGFLIPNAKYTTTNYFEFYLPYYWNIAPNMDATITPHYMHRRGNIMWENEFRYLSQAGAGLMELDYLPSDKVYEDEHPNDDSSRRWLFYWNHSGVMDQVWRFNVDYTKVSDPSYFNDFDNKYGSSTDGYATQKFSVGYAVQNFNATVSTKQFQVFSEQNTSSYSAEPQLDVNYYQNDVGPFDTRIYGQAVHFVNTRDDMPEATRVHLEPTINLPLSNNWGSINTEAKLLATHYQQTNLDWYNSRNTTKLDESVNRVMPQFKVDGKMVFERDMEMLAPGYTQTLEPRAQYLYVPYRDQSDIYNYDSSLLQSDYSGLFRDRTYGGLDRIASANQVTTGVTSRIYDDAAVERFNISVGQIYYFTESRTGDDNITWENDDKTGSLVWAGDTYWRISERWGLRGGIQYDTRLDNVATSNSSIEYRRDEDRLVQLNYRYASPEYIQATLPKYYSTAEQYKNGISQVGAVASWPIADRWSIVGAYYYDTNANKQADSMLGVQYSSCCYAIRVGYERKLNGWDNDKQHAVYDNAIGFNIELRGLSSNYGLGTQEMLRSNILPYQNTL
notes: LptD, E. coli, UniProt P31554; mature protein (theoretical mass 87,080 Da); Untagged; Cysteines at 31, 173, 724 and 725 (C1 to C4); the mature oxidized form LptD^Ox has the disulfides C1-C3 and C2-C4; samples from ΔlptM cells also hold partially oxidized forms; also called LptD^CCCC; wild-type LptD; source: E. coli BW25113 (wild-type or ΔlptM), overproduced from pLptDE^His or pLptDEM^His; …

Assays:
[1] = target: B3; assay: HDX-MS; LPS translocon produced in the presence or absence of LptM, purified in detergent micelles; 20 μM protein diluted in deuterated buffer (20 mM MES pH 6.5, 200 mM NaCl), 20 °C, 0.5 to 30 min; pepsin digestion; details: both partners purified
[2] = target: B2; assay: as above; details: both partners purified
[3] = target: B1; assay: native MS; co-expressed and Ni-affinity co-purified complexes LptDE^His and LptDEM^His, ~10-20 μM in 200 mM ammonium acetate pH 7.4, 0.03% DDM; nano-electrospray, positive ion mode; details: both partners purified
[4] = target: B2; assay: as above; details: both partners purified
[5] = target: B3; assay: pull-down; Ni-affinity purification of LptE^His from the DDM-solubilized envelope fraction of wild-type (lptM^+) cells with pLptDE^His; Ni-NTA 2 h at 4 °C, 50 mM Tris-HCl pH 8, 150 mM NaCl, DDM; SDS-PAGE or BN-PAGE, Coomassie staining or Western blotting; details: partners not purified

Which results are given for B1?
binding result [1]: binds; binding result [2]: binds

With B2 as the binder, how does the “stoichiometry N” value [3] read?
The value was 1.

B3 was tested. Which “stoichiometry N” value [4] did it give?
Its value is 1.

What about the “stoichiometry N” value [3] of the same binder?
Its value is 1.

B4: LptE^His (natural protein)
chain: not shown
modifications: tri-acylated (mature and tri-acylated protein)
notes: LptE, E. coli, UniProt P0ADC1; mature and tri-acylated lipoprotein (theoretical mass with the tag 21,348 Da); also called C-terminally poly-histidine tagged variant of LptE; source: E. coli BW25113 (wild-type or ΔlptM), overproduced from pLptDE^His or pLptDME^His; DDM-solubilized envelope fraction; not shown: poly-histidine, C-terminal, kept
Does B4 bind [5]?
Result: binds
